Assay results reported in IntAct's records for PubMed 15457209.

B1: Rab GTPase-binding effector protein 1 (Homo sapiens), Q15276 (parent)
chain: MAQPGPASQPDVSLQQRVAELEKINAEFLRAQQQLEQEFNQKRAKFKELYLAKEEDLKRQNAVLQAAQDDLGHLRTQLWEAQAEMENIKAIATVSENTKQEAIDEVKRQWREEVASLQAVMKETVRDYEHQFHLRLEQERTQWAQYRESAEREIADLRRRLSEGQEEENLENEMKKAQEDAEKLRSVVMPMEKEIAALKDKLTEAEDKIKELEASKVKELNHYLEAEKSCRTDLEMYVAVLNTQKSVLQEDAEKLRKELHEVCHLLEQERQQHNQLKHTWQKANDQFLESQRLLMRDMQRMEIVLTSEQLRQVEELKKKDQEDDEQQRLNKRKDHKKADVEEEIKIPVVCALTQEESSAQLSNEEEHLDSTRGSVHSLDAGLLLPSGDPFSKSDNDMFKDGLRRAQSTDSLGTSGSLQSKALGYNYKAKSAGNLDESDFGPLVGADSVSENFDTASLGSLQMPSGFMLTKDQERAIKAMTPEQEETASLLSSVTQGMESAYVSPSGYRLVSETEWNLLQKEVHNAGNKLGRRCDMCSNYEKQLQGIQIQEAETRDQVKKLQLMLRQANDQLEKTMKDKQELEDFIKQSSEDSSHQISALVLRAQASEILLEELQQGLSQAKRDVQEQMAVLMQSREQVSEELVRLQKDNDSLQGKHSLHVSLQQAEDFILPDTTEALRELVLKYREDIINVRTAADHVEEKLKAEILFLKEQIQAEQCLKENLEETLQLEIENCKEEIASISSLKAELERIKVEKGQLESTLREKSQQLESLQEIKISLEEQLKKETAAKATVEQLMFEEKNKAQRLQTELDVSEQVQRDFVKLSQTLQVQLERIRQADSLERIRAILNDTKLTDINQLPET
partner: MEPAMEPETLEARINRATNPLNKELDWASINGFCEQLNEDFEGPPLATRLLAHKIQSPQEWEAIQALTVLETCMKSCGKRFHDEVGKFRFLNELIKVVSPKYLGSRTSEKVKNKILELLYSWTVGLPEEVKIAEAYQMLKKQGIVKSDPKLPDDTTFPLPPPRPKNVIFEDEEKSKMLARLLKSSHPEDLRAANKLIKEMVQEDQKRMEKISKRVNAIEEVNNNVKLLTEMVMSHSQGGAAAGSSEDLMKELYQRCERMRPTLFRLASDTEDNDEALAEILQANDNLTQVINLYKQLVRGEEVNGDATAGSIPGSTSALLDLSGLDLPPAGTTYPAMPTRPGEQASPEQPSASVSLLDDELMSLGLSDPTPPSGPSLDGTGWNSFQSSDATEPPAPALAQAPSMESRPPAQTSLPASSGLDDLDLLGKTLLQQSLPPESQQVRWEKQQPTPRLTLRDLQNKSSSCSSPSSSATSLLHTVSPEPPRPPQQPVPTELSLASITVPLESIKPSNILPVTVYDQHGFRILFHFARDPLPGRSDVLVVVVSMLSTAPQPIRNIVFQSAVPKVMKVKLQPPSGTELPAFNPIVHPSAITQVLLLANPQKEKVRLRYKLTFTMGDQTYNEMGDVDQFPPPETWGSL

Variants of: B1
Conditions: with gga1_human GGA1, Q9UJY5

Variant	effect of a mutation on the interaction
Q561A	decreasing interaction
M563R	decreasing interaction
N568R	decreasing interaction
Q566R	decreasing interaction
Q566A	decreasing interaction
